Measurements taken from US20050154189A1 (MAXYGEN, published 2005).

Biological target: T1, Soluble CD28-Ig (human, UniProt P10747 19-152, biotin-conjugated (NHS-biotin) in the labelled-ligand FACS assays)
T1 construct: extracellular domain; Bought from R&D Systems; also called sCD28-Ig; CD28-Ig Fc; not shown: Fc portion of human IgG1
Assay: two-colour FACS profile on transfected cells; score of preference for CD28-Ig over CTLA-4-Ig vs WT hB7-1

Row | Binder | Binding Score
1 | Round 2 CD28BP-8 (ligand, also called clone CD28BP-8) ITPKSVTKRVKETVMLSCDYNTSTEELTSLRIYWQKDSKMVLAILPGKVQVWPEYKNRTITDMNDNPRIVILALRLSDSGTYTCVIQKPVLKGAYKLEHLASVRLMIRADFPVPSITDIGHPAPNVKRIRCSASGGFPEPRLAWMEDGEELNAVNTTVDQDLDTELYSVSSELDSNVTNNHSIVCLIKYGELSVSQIFPWSKPKQEPPIDQLPFWVIIPVSGALVLTAVVLYCLACRHVARWKRTRRNEETVGTERLSPIYLGSAQSSG | 2
2 | Round 2 CD28D10-4 (ligand) SGITPKSVTKRVKETVMLSCDYNTSTEELTSLRIYWQKDSKMVLAILPGKVQVWPEYKNRTITDMNDNPRIVILALRLSDKGTYTCVVQKNENGSFRREHLTSVTLSIRADFPVPSITDIGHPAPNVKRIRCSASGGFPEPRLAWMEDGEELNAVNTTVDQDLDTELYSVSSELDFNVTNNHSIVCLIKYGELSVSQIFPWSKPKQEPPIDQLPFWVIIPVSGALVLTAVVLYCLACRHVARWKRTRRNEETVGTERLSPIYLGSAQSSG | 0
3 | Round 2 CD28A8-6 (ligand) SGITPKSVTKRVKETVMPSCDYSTSTEELTSLRIYWQKDSKMVLAILPGKVQVWPEYKNRTITDMNDNPRIVILALRLSDSGTYTCVVQKNENGSFRREHLTSVTLSIRADFPVPSITDIGHPAPNVKRIRCSASGGFPEPRLAWMEDGEELNAVNTTVDQDLDTELYSVSSELDFNVTNNHSIVCLIKYGELSVSQIFPWSKPKQEPPIDQLPFWVIIPVSGALVLTAVVLYCLACRHVARWKRTRRNEETVGTERLSPIYLGSAQSSG | 1
4 | Round 2 CD28BP-11 (ligand) SGITPKSVTKRVKETVMLSCDYNASTEELTSLRIYWQKDSKMVLAILPGKVQVWPEYKNRTITDMNDNPRIVILALRLSDKGTYTCVVQKNENGSFRREHLTSVTLSIRADFPVPSITDIGHPAPNVKRIRCSASGGFPEPRLAWMEDGEELNAVNTTVDQDLDTELYSVSSELDFNVTNNHSIVCLIKYGELSVSQIFPWSKPKQEPPIDQLPFWVIIPVSGALVLTAVVLYCLACRHVARWKRTRRNEETVGTERLSPIYLGSAQSSG | 2
5 | Round 2 CD28BP-17 (ligand) SGITPKSVTKRVKETVMLSCDYSTSTEELTSLRIYWQKDSKMVLAILPGKVQVWPEYKNRTFPDIINNLSLMILALRLSDKGTYTCVVQKNENGSFRREHLTSVTLSIRADFPVPSITDIGHPAPNVKRIRCSASGDFPEPRLAWMEDGEELNAVNTTVDQDLDTELYSVSSELDFNVTNNHSIVCLIKYGELSVSQIFPWSKPKQEPPIDQLPFWVIIPVSGALVLTVVVLYCLACRHVARWKRTRRNEETVGTERLSPIYLGSAQSSG | 2
6 | Round 2 CD28F3-5 (ligand) SGITPKSVTKRVKETVMLSCDYNTSTEELTSLRIYWQKDSKMVLAILPGKVQVWPEYKNRTITDMNDNPRIVILALRLSDSGTYTCVVQKNENGSFRREHLTSVTLSIRADFPVPSITDIGHPAPNVKRIRCSASGGFPEPRLAWMEDGEELNAVNTTVDQDLDTELYSVSSELDFNVTNNHSIVCLIKYGELSVSQIFPWSKPKQEPPIDQLPFWVIIPVSGALVLTAVVLYCLACRHVARWKRTRRNEETVGTERLSPIYLGSAQSSG | 0
7 | Round 2 CD28G1-5 (ligand) SGITPKSVTKRVKETVMLSCDYSTSTEELTSLRIYWQKDSKMVLAILPGKVQVWPEYKNRTFPDIINNLSLMILALRLSDKGTYTCVVQKNENGSFRREHLTSVTLSIRADFPVSSITDIGHPAPNVKRIRCSASGGFPEPRLAWMEDGEELNAVNTTVDQDLDTELYSVSSELDFNVTNNHSIVCLIKYGELSVSQIFPWSKPKQEPPIDQLPFWVIIPVSGALVLTAVVLYCLACRHVARWKRTRRNEETVGTERLSPIYLGSAQSSG | 1
8 | Round 2 CD28BP-14 (ligand) GISQVTKSVKEMAALSCDYNISIDELARMRIYWQKDQQMVLSIISGQVEVWPEYKNRTITDMNDNPRIVILALRLSDSGTYTCVIQKPVLKGAYKLEHLASVRLMIRADFPVPTINDLGNPSPNIRRLICSTSGGFPRPHLYWLENGEELNATNTTVSQDPGTELYMISSELDFNVTNNHSIVCLIKYGELSVSQIFPWSKPKQEPPIDQLPFWVIIPVSGALVLTAVVLYCLACRHVARWKRTRRNEETVGTERLSPIYLGSAQSSG | 2
9 | Round 2 CD28B6-6 (ligand) ITPKSVTKRVKETVMLSCDYSTSTEELTSLRIYWQKDSKMVLAILPGKVQVWPEYKNRTITDMNDNPRIVILALRLSDKGTYTCVIQKPVLKGAYKLEHLTSVTLSIRADFPVPSITDIGHPAPNVKRIRCSASGGFPEPRLAWMEDGEELNAVNTTVDQDLDTELYSVSSELDFNATNNHSIVCLIKYGELSVSQIFPWSKPKQEPPIDQLPFWVIVPVSGALVLTAVVLYCLACRHVAR | 1
10 | Round 2 CD28C7-3 (ligand) ITPKSVTKRVKETVMLSCDYSTSTEELTSLRIYWQKDSKMVLAILPGKVQVWPEYKNRTITDMNDNPRIVILALRLSDSGTYTCVIQKPDLKGAYKLEHLTSVRLMIRADFPVPSITDIGHPAPNVKRIRCSASGDFPEPRLAWMEDGEELNAVNTTVDQDLDTELYSVSSELDFNVTNNHSIVCLIKYGELSVSQIFPWSKPKQEPPIDQLPFWVIIPVSGALVLTAVVLYCLACRHVARWKRTRRNEETVGTERLSPIYLGSAQSSG | 1
11 | Round 2 CD28C2-4 (ligand) GISQVTKSVKEMAALSCDYNISIDELARMRIYWQKDQQMVLSIISGQVEVWPEYKNRTITDMNDNPRIVILALRLSDSGTYTCVIQKPVLKGAYKPEHLASVRLMIRADFPVPTINDLGNPSPNIRRLICSTSGGFPRPHLYWLENGEELNATNTTLSQDPETKLYMISSELDFNMTSNHSFLCLVKYGDLTVSQTFYWQESKPTPSANQHLTWTIIIPVSAFGISVIIAVILTCLTCRNAAIRRQRRENEVEMQSCSQSP | 1
12 | Round 2 CD28D2-3 (ligand) ITPKSVTKRVKETVMLSCDYNTSTEELTSLRIYWQKDSKMVLAILPGKVQVWPEYKNRTITDMNDNPRIVIQALRLSDSGTYTCVIQKPVLKGAYKLEHLASVRLMIRADFPVPTDLGNPSPNIRRLICSTSGGFPRPHLYWLENGEELNATNTTVSQDPGTELYMISSELDFNVTNNHSIVCLIKYGELSVSQIFPWSKPKQEPPIDQLPFWVIIPVSGALVLTAVVLYCLACRHVARWKRTRRNEETVGTERLSPIYLGSAQSSG | 1
13 | Round 2 CD28D11-1 (ligand) ITPKSVTKRVKETVMLSCDYNTSTEELTSLRIYWQKDSKMVLAILPGKVQVWPEYKNRTITDMNDNPRIVILALRLSDSGTYTCVVQKNENGSFRREHLTSVTLSIRADFPVPSITDIGHPAPNVKRIRCSASGDFPEPRLAWMEDGEELNAVNTTVDQDLDTELYSVSSELDFNVTNNHSIVCLIKYGELSVSQIFPWSKPKQEPPIDQLPFWVIILVSGALVLTAVVLYCLACRHVARWKRTRRNEETVGTERLSPIYLGSAQSSG | 2
14 | Round 2 CD28D12-5 (ligand) ITPKSVTKRVKETVMLSCDYSTSTEELTSLRIYWQKDSKMVLAILPGKVQVWPEYKNRTITDMNDNPRIVILALRLSDSGTYTCVIQKPVLKGAYKLEHLASVRLMIRADFPVPSITDIGHPAPNVKRIRCSASGDFPEPRLAWMEDGEELNAVNTTVLDTELYSVSSELDFNVTNNHSIVCLIKYGELSVSQIFPWSKPKQEPPIDQLPFWVIIPVSGALVLTAVVLYCLACRHVARWKRTRRNEETVGTERLSPIYLGSAQPSG | 2
15 | Round 2 CD28F10-2 (ligand) ITPKSVTKRVKETVMLSCDYNTSTEELTSLRIYWQKDSKMVLAILPGKVQVWPEYKNRTITDMNDNPRIVILALRLSDSGTYTCVIQKPDLKGAYKLEHLTSVRLMIRADFPVPSITDIGHPAPNVKRIRCSASGDFPEPRLAWMEDGEELNAVNTTVDQDLDTELYSVSSELDFNVTNNHSIVCLIKYGELSVSQIFPWSKPKQEPPIDQLPFWVIIPVSGALVLTAVVLYCLACRHVARWKRTRRNEETVGTERLSPIYLGSAQSSG | 1
16 | Round 2 CD28F12-5* (ligand) ITPKSVTKRVKETVMLSCDYNTSTEELTSLRIYWQKDSKMVLAILPGKVQVWPEYKNRTITDMNDNPRIVILALRLSDSGTYTCVIQKPDLKGAYKLEHLASVRLMIRADFPVPSITDIGHPAPNVKRIRCSASGDFPEPRLAWMEDGEELNAVNTTVDQDLDTELYSVSSELDFNVTNNHSIVCLIKYGELSVSQIFPWSKPKQEPPIDQLPFWVIIPVSGALVLTAVVLYCLACRHVARWKRTRRNEETVGTERLSPIYLGSAQSSG | 1
17 | Round 2 CD28G1-9 (ligand) ITPKSVTKRVKETVMLSCDYNTSTEELTSLRIYWQKDSKMVLAILPGKVQVWPEYKNRTITDMNDNPRIVILALRLSDSGTYTCVIQKPVLKGAYKLEHLTSVRLMIRADFPVPSITDIGHPAPNVKRIRCSASGGFPEPRLAWMEDGEELNAVNTTVDQDLDTELYSVSSELDFNVTNNHSIVCLIKYGELSVSQIFPWSKPKQEPPIDQLPFWVIIPVSGALVLTAVVLYCLACRHVARWKRTRRNEETVGTERLSPIYLGSAQSSG | 1
18 | Round 2 CD28H6-6 (ligand) ITPKSVTKRVKETVMLSCDYSTSTEELTSLRIYWQKDSKMVLAILPGKVQVWPEYKNRTITDMNDNPRIVILALRLSDSGTYTCVIQKPVLKGAYKLEHLASVRLMIRADFPVPTINDLGNPSPNIRRLICSGFPRPHLYWLENGEELNATNTTVSQDPGTELYMISSELDFNVTNNHSIVCLIKYGELSVSQIFPWSKPKQEPPIDQLPFWVIIPVSGALVLTAVVLYCLACRHVARWKRTRRNEETVGTERLSPIYLGSAQSSG | 1
19 | Round 2 CD28A2-5 (ligand) ITPKSVTKRVKETVMLSCDYNTSTEELTSLRIYWQKDSKMVLAILPGKVQVWPEYKNRTITDMNDNPRIVILALRLSDSGTYTCVIQKPDLKGAYKLEHLASVRLMIRADFPVPSITDIGHPAPNVKRIRCSASGGFPEPRLAWMEDGEELNAVNTTVDQDLDTELYSVSSELDFNMTSNHSFLCLVKYGDLTVSQTFYWQESKPTPSANQHLTWTIIIPVSAFGISVIIAVILTCLTCRNAAIRRQRRENEGKCKVLSVSIGTKLKFNR | 0
